# B1: mZP2-N2N3 (mouse ZP2 NTR ΔN1 construct) (domain or fragment, UniProt P20239 135-360, looked up)
# chain: PAIQAETHEISEIVVCRRDLISFSFPQLFSRLADENQNVSEMGWIVKIGNGTRAHILPLKDAIVQGFNLLIDSQKVTLHVPANATGIVHYVQESSYLYTVQLELLFSTTGQKIVFSSHAICAPDLSVACNATHMTLTIPEFPGKLESVDFGQWSIPEDQWHANGIDKEATNGLRLNFRKSLLKTKPSEKCPFYQFYLSSLKLTFYFQGNMLSTVIDPECHCESPVS
# Biological target: the molecule itself
# Assay: crystal structure
protein,measurement,value
B1,binding result,binds
